# Values of other authors as cited in article PMC9499636.
# Columns and labels:
# [1] = molecular target: EphA2-Sam Sam (Homo sapiens) (UniProt P29317); experiment: SPR
# [2] = molecular target: Ship2 Sam (Homo sapiens) (UniProt O15357); experiment: SPR
# [3] = molecular target: Ship2 Sam (Homo sapiens) (UniProt O15357); experiment: ITC
# [4] = molecular target: EphA2 Sam (Homo sapiens) (UniProt P29317); experiment: SPR
# [5] = molecular target: EphA2 Sam (Homo sapiens) (UniProt P29317); experiment: ITC
# Chain of UniProt O15357 (O15357 1193-1258): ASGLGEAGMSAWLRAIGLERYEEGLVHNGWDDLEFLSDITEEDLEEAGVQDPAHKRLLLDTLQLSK
substance,measurement,setting,value
Pep2 (from UniProt Q92625),Kd,[1],222 µM
EphA2 Sam (from UniProt P29317),Kd,[2],2.2 µM
same,Kd,[3],0.75 µM
Pep3 (from UniProt Q92625),Kd,[1],523 µM
Odin Sam1 (from UniProt Q92625),Kd,[4],5.5 µM
same,Kd,[5],0.62 µM
